Measurements reported in article PMC10862077 (Frontiers in Immunology, 2024).

What was measured:
Settings in all cases: both partners purified
[1] = target: T1, horse albumin (Equus caballus, UniProt P35747)
[2] = target: T1, horse albumin; test: ELISA; […], pH 7.4); room temperature; […]
[3] = target: T2, cat albumin (Felis catus, UniProt P49064); test: ELISA; […], pH 7.4); room temperature; […]
[4] = target: T3, human albumin (Homo sapiens, UniProt P02768); test: ELISA; […], pH 7.4); room temperature; […]
T3 construct: also called HSA

[5] = target: bovine albumin (Bos taurus, UniProt P02769); test: ELISA; […], pH 7.4); room temperature; […]
[6] = target: sheep albumin (Ovis aries, UniProt P14639); test: ELISA; […], pH 7.4); room temperature; […]
[7] = target: T4, natural protein of Sus scrofa P08835 (Sus scrofa, UniProt P08835); test: ELISA; […], pH 7.4); room temperature; […]
T4 construct: also called Sw

[8] = target: mouse albumin (Mus musculus, UniProt P07724); test: ELISA; […], pH 7.4); room temperature; […]
[9] = target: chicken ovalbumin (Gallus gallus, UniProt P01012); test: ELISA; […], pH 7.4); room temperature; […]
[10] = target: T2, cat albumin
[11] = target: T4, natural protein of Sus scrofa P08835

T4 sequence (P08835 25-607, one chain of several): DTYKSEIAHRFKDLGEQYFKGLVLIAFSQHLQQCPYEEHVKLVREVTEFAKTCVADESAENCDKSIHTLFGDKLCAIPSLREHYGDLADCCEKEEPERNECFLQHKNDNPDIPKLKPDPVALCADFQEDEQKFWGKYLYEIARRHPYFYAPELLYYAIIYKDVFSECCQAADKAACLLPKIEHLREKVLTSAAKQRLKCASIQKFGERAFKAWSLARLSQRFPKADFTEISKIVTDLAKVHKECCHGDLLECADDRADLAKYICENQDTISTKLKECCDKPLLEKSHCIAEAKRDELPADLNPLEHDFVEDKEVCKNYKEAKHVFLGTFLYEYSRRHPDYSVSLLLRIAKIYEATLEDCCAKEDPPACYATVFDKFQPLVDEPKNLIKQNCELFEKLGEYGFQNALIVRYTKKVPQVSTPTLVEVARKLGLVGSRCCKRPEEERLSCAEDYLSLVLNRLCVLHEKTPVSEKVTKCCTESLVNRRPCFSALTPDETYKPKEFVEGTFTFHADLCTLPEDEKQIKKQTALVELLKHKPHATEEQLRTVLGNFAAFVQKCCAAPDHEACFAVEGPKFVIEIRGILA
T1 sequence (P35747 25-607): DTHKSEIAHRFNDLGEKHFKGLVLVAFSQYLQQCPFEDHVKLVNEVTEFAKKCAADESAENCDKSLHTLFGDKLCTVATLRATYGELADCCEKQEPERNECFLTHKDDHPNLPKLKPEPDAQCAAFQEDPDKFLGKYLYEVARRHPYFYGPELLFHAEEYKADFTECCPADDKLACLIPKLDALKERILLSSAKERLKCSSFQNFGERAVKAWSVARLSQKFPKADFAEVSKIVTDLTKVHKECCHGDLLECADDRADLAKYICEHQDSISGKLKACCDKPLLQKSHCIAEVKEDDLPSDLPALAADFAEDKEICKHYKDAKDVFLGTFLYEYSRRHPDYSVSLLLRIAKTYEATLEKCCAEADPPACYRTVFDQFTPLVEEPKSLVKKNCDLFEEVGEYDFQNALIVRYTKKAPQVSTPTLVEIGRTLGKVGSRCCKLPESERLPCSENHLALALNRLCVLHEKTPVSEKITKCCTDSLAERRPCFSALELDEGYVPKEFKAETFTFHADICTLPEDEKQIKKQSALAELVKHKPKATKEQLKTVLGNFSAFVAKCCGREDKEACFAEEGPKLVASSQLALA
T2 sequence (P49064 25-608): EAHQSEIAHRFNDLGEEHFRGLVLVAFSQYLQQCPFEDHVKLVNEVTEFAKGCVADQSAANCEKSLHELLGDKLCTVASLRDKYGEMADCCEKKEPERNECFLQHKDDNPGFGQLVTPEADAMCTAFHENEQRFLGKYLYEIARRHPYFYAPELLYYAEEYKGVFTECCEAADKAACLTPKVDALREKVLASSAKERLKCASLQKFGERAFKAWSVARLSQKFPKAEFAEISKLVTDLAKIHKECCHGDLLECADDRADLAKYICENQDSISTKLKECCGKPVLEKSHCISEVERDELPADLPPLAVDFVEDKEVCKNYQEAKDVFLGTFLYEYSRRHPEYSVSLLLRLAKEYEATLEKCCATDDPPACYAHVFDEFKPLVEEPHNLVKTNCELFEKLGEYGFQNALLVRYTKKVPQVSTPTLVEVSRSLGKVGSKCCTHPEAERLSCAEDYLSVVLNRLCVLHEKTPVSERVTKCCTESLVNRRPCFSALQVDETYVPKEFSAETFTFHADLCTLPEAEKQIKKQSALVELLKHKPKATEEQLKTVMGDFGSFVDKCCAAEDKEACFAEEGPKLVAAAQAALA
Sequence of sheep albumin (P14639 25-607): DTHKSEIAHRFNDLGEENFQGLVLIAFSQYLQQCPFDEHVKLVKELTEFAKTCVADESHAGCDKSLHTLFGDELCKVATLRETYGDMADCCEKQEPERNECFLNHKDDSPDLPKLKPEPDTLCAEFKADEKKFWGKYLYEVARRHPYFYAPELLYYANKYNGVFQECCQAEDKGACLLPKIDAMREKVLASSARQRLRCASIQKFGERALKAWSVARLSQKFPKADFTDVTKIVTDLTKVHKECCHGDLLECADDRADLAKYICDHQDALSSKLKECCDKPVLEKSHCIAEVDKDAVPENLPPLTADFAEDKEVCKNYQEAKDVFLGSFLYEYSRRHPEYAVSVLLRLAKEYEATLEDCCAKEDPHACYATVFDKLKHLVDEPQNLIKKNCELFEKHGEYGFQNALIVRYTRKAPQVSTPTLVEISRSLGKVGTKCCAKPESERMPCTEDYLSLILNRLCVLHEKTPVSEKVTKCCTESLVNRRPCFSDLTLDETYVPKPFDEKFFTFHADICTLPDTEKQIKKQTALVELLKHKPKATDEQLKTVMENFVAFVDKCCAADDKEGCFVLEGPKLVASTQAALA
Sequence of mouse albumin (P07724 25-608): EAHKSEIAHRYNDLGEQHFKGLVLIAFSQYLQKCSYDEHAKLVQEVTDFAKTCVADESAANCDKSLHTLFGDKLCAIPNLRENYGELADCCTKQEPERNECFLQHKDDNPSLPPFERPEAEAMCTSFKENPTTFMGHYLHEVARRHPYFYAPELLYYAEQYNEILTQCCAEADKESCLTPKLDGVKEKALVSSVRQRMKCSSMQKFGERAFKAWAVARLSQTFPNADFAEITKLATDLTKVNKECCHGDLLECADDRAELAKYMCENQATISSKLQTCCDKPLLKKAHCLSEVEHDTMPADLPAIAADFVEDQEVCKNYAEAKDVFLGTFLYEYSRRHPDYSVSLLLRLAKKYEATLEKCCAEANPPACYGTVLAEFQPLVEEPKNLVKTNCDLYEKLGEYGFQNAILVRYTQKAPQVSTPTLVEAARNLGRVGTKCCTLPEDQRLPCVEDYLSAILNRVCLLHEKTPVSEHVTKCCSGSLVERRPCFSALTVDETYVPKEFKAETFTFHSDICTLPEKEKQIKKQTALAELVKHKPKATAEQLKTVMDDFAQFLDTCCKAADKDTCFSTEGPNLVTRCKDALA
Sequence of bovine albumin (P02769 25-607): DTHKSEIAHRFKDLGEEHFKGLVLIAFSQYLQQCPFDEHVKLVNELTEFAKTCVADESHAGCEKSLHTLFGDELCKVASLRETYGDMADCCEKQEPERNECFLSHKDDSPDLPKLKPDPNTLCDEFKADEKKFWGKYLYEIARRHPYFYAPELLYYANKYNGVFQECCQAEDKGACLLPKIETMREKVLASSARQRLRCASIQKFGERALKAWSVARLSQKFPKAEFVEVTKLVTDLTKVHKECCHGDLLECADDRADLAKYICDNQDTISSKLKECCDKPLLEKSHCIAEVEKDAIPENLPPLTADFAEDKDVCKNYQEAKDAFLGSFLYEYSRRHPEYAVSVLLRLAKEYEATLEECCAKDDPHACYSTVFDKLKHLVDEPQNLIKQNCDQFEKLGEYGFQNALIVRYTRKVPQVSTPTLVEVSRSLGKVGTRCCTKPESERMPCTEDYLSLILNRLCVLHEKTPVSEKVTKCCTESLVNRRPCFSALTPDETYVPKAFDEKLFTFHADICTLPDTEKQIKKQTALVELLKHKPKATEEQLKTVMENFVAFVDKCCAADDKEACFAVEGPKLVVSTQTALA
Sequence of chicken ovalbumin (P01012 whole entry): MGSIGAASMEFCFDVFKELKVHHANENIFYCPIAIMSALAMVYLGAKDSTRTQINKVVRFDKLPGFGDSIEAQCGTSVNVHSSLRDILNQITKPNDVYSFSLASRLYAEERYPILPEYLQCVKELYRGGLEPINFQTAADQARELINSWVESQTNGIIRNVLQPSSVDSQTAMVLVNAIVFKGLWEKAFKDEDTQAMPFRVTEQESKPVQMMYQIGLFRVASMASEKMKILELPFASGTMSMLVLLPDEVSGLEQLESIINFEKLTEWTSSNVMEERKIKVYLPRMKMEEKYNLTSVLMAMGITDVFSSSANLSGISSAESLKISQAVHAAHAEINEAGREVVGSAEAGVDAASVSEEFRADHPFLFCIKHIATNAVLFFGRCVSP
T3 sequence (P02768 25-609): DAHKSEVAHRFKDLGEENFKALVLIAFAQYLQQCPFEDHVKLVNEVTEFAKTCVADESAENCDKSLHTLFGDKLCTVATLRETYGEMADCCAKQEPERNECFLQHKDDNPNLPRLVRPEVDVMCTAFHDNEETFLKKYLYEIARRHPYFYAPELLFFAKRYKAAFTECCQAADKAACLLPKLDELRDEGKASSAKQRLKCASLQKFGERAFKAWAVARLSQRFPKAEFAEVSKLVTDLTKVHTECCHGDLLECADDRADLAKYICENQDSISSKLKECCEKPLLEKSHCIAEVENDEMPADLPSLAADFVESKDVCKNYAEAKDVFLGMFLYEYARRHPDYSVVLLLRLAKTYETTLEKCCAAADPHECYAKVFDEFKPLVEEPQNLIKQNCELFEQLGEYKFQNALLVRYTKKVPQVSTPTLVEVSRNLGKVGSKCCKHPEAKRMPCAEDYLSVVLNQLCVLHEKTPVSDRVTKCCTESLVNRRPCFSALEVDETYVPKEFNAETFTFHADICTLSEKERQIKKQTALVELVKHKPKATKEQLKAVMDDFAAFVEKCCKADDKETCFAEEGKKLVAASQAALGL

B1: A16L (VHH)
VHH: QVQLQESGGGVVQAGGSLRLSCAASGRTVSSSAMGWFRLAPGKEREFVVGISRSGGSIFYADSVKGRFTISRKNAKNTVDLQMNSLKPEDTAVYYCAAGYRPGYGDYGRVFYREDEYDDWGQGTQVTVSS
notes: also called sdAb A16
- Kd [1]: 11 nM
- koff [1]: 0.00242 s⁻¹

B2: A2L (VHH)
VHH: QVQLQQSGGGLVQAGGSLRLSCAASGRFFSRQVMGWFRQAPGKDREFVGVISWDNGVTFYSDSVKGRFTMSREIAKKTVHLQMNSLKPEDTAVYYCAAGNALHSRYYSPSKYDYWGPGTQVTVSS
notes: also called sdAb A2
- binding result [2]: binds

B3: A7L (VHH)
VHH: QVQLQQSGGGLVQAGDSLRLSCAASGRAFNYYTMGWFRQAPGKEREFVAKIYWDGGSTIYADSVKGRFTISIDNAKNTVYLQMNSLKPEDTAVYYCAADPSFYPFRPKYWGQGTQVTVSS
notes: also called sdAb A7
- binding result [2]: binds
- binding result [3]: no binding (tested: 1 µg/ml sdAb)
- binding result [4]: no binding (tested: 1 µg/ml sdAb)
- binding result [5]: no binding (tested: 1 µg/ml sdAb)
- binding result [6]: no binding (tested: 1 µg/ml sdAb)
- binding result [7]: no binding (tested: 1 µg/ml sdAb)
- binding result [8]: no binding (tested: 1 µg/ml sdAb)
- binding result [9]: no binding (tested: 1 µg/ml sdAb)

B4: A6L (VHH)
VHH: QVQLQESGGRLVQAEDSLRLSCAASGRTFVSYDMGWFRQAPGKEREFVAAINWRGYTTDYVDSVKGRFFISRDIAKSTVYLQMNNLKPEDTAVYYCAARQMSGSSRYSPPGRVGYDFWGQGTQVTVSS
notes: also called sdAb A6
- Kd [1]: 13 nM
- koff [1]: 0.00966 s⁻¹
- Kd [10]: 1.2 nM
- koff [10]: 0.00087 s⁻¹

B5: A12L (VHH)
VHH: QVQLQESGGGLVQAGGSLRLSCAASGRTFSYYPMAWFRQAPGQEREFVAAIIGADTTYYADSLKGRFTISRDNAKNMVYLQMNSLKPEDTAVYYCAARNTYWSDVYYREGQYTNWGQGTQVTVSS
notes: also called sdAb A12
- Kd [1]: 13 nM
- koff [1]: 0.00115 s⁻¹
- Kd [10]: 31 nM
- koff [10]: 0.00082 s⁻¹
- Kd [11]: 189 nM
- koff [11]: 0.0249 s⁻¹
